Laboratory results published in US20260184814A1, “BROADLY NE[…] INFLUENZA NEURAMINIDASE” (priority 2022, published 2026).

Assays:
[1] = test system: NA-17: N2 from A/South_Australia/34/2019
[2] = test system: NA-1: N1 from A/Vietnam/1203/2004
[3] = test system: H7N3_NA_A_Ck_Ja_PAVX17170_2017
[4] = test system: H5N6_NA_A_Hangzhou_01_2021
[5] = test system: NA-16: N2 from A/Switzerland/8060/2017
[6] = test system: NA-5: N2 from A/Tanzania/205/2010
[7] = test system: NA-19: N2 from A/Tanzania/205/2010 (82-469) S245NS247T
[8] = test system: NA-18: N2 from A/Hong-Kong/2671/2019

B1: FNI9-v13.8 (protein)
heavy chain: QVQLVQSGAEVKEPGSSVTVSCKASGGSFNNQAISWVRQAPGQGLEWMGGIFPISGTPTSAQRFQGRVTFTADESTTTVYMDLSSLRSDDTAVYYCARAGSDYFNRDLGWENYYFASWGQGTLVTVSS
light chain: EIVMTQSPATLSVSPGERATLSCRASRSVSSNLAWYQQKPGQAPRLLIYDASTRATGFSARFAGSGSGTEFTLTISSLQSEDSAIYYCQQYNNWPPWTFGQGTKVEIK
- ELLA vs pseudoviruses | M (H7N9_NA_A_Anhui_1_2013): 1.701 µg/mL
- ELLA vs pseudoviruses | K (H7N7_NA_A_Ck_621572_03): 53.76 µg/mL
- MUNANA vs NA antigens | D [1]: 80455 µg/mL
- MUNANA vs NA antigens | A [2]: 30.6 µg/mL
- ELLA vs pseudoviruses | H [3]: 11.57 µg/mL
- ELLA vs pseudoviruses | J [4]: 2.03 µg/mL
- MUNANA vs NA antigens | C [5]: 834.9 µg/mL
- MUNANA vs NA antigens | B [6]: 158.3 µg/mL
- MUNANA vs NA antigens | F [7]: 1073 µg/mL
- MUNANA vs NA antigens | E [8]: 832.7 µg/mL
